Laboratory results: patent US10358663B2, “Method of production of 2,4-dihydroxybutyric acid” (ADISSEO FRANCE S.A.S., priority 2010, dated 2019)

Tests used:
Format in all cases: biochemical, Escherichia coli
[1] = substrate: N[C@@H](CC(=O)O)C(=O)O; test: Aspartate kinase assay (ADP production coupled to NADH oxidation), His-tagged wild-type LysC; conditions: other: His-tagged LysC, Eadie and Hofstee, pH 7.5, 30° C.
Protocol: Enzymatic assay: Aspartate or malate kinase activities were assayed by coupling ADP production in the kinase reactions to NADH oxidation in the presence of phosphoenolpyruvate, pyruvate kinase, and lactate dehydrogenase.
Aspartate (or Malate) Kinase aspartate (or malate)+ATP→4-phospho-(L)-aspartate (or 4-phospho-(L)-malate)+ADP
The assay mixture contained 50 mM Hepes (pH 7.5), 50 mM KCl, 5 mM MgCl2, 0.24 mM NADH, 0.96 mM ATP, 0.96 mM PEP, 9 μg/mL of lactate dehydrogenase (Sigma, L2500), 12.4 μg/mL pyruvate kinase (Sigma, P1506), and appropriate amounts of purified aspartate (malate) kinase. Reactions were started by adding 50 mM (L)-aspartate or (L)-malate. Enzymatic assays were carried out at 30° C. in 96-well flat bottomed microtiter plates in a final volume of 250 μL. The reactions were followed by the characteristic absorption of NADH at 340 nm in a microplate reader (BioRad 680XR).
Maximum activities for LysC and Hom3 on aspartate were 4.5 μmol/(min*mgprot) and 1.6 μmol/(min*mgprot), respectively. The Km value for aspartate was estimated with the method of Eadie and Hofstee by measuring initial reaction rates (v) at different substrate concentrations (c) and by extracting the slope of the v versus v/c plot. […]

[2] = substrate: O=CC[C@H](O)C(=O)O; test: Malate semialdehyde dehydrogenase assay, Asd E241Q T136N; conditions: other: malate semialdehyde, reverse biosynthetic direction, pH 9, 0.25 mM NADP, 30° C.
Protocol: (§1) Enzymatic assay: Aspartate or malate semialdehyde dehydrogenase activities were assayed in the reverse biosynthetic direction by following the reduction of NADP during the oxidation of aspartate or malate semialdehyde to 4-phospho-(L)-aspartate or 4-phospho-(L)-malate, respectively (Roberts et al., 2003). (L)-aspartate semialdehyde (or (L)-malate semialdehyde)+NADP+Pi→4-phospho-(L)-aspartate (or 4-phospho-(L)-malate)+NADPH
(§2) The assay mixture contained 200 mM Hepes (pH 9), 50 mM K2HPO4, 0.25 mM NADP. Reactions were started by adding (L)-aspartate semialdehyde or (L)-malate semialdehyde. (L)-Aspartate semialdehyde was added in the form of L-aspartic acid β-semialdehyde hydrate trifluoroacetate (maintained at pH3 to prevent degradation) which is a suitable substrate for enzymatic tests of homoserine dehydrogenase and aspartate semialdehyde dehysrogenase (Roberts et al., 2003). Unstable malate semialdehyde was produced freshly prior to the enzymatic tests by the deprotection of the stable malate semialdehyde derivative 2-[(4S)-2,2-dimethyl-5-oxo-1,3-dioxolan-4-yl]acetaldehyde (DMODA). […]
Enzymatic assays were carried out in 96-well flat bottomed microtiter plates in a final volume of 250 μL at 30° C. The reactions were followed by the characteristic absorption of NADPH at 340 nm in a microplate reader (BioRad 680XR). […]

[3] = substrate: O=CC[C@H](O)C(=O)O; test: Malate semialdehyde dehydrogenase assay, Asd E241Q; conditions: other: malate semialdehyde, reverse biosynthetic direction, pH 9, 0.25 mM NADP, 30° C.
Protocol: as §1, §2
(§3) Enzymatic assays were carried out in 96-well flat bottomed microtiter plates in a final volume of 250 μL at 30° C. The reactions were followed by the characteristic absorption of NADPH at 340 nm in a microplate reader (BioRad 680XR).

[4] = substrate: O=CC[C@H](O)C(=O)O; test: Malate semialdehyde dehydrogenase assay, Asd E241M; conditions: other: malate semialdehyde, reverse biosynthetic direction, pH 9, 0.25 mM NADP, 30° C.
Protocol: as §1, §2, §3

[5] = substrate: O=CC[C@H](O)C(=O)O; test: Malate semialdehyde dehydrogenase assay, Asd E241A; conditions: other: malate semialdehyde, reverse biosynthetic direction, pH 9, 0.25 mM NADP, 30° C.
Protocol: as §1, §2, §3

[6] = substrate: O=CC[C@H](O)C(=O)O; test: Malate semialdehyde dehydrogenase assay, Asd E241H; conditions: other: malate semialdehyde, reverse biosynthetic direction, pH 9, 0.25 mM NADP, 30° C.
Protocol: as §1, §2, §3

[7] = substrate: O=CC[C@H](O)C(=O)O; test: Malate semialdehyde dehydrogenase assay, Asd E241C; conditions: other: malate semialdehyde, reverse biosynthetic direction, pH 9, 0.25 mM NADP, 30° C.
Protocol: as §1, §2, §3

[8] = substrate: O=CC[C@H](O)C(=O)O; test: Malate semialdehyde dehydrogenase assay, Asd E241I; conditions: other: malate semialdehyde, reverse biosynthetic direction, pH 9, 0.25 mM NADP, 30° C.
Protocol: as §1, §2, §3

B1: E. coli aspartate kinase III LysC, wild type, His-tagged, SEQ ID NO: 4 (Escherichia coli K-12) (protein)
chain: MSEIVVSKFGGTSVADFDAMNRSADIVLSDANVRLVVLSASAGITNLLVALAEGLEPGERFEKLDAIRNIQFAILERLRYPNVIREEIERLLENITVLAEAAALATSPALTDELVSHGELMSTLLFVEILRERDVQAQWFDVRKVMRTNDRFGRAEPDIAALAELAALQLLPRLNEGLVITQGFIGSENKGRTTTLGRGGSDYTAALLAEALHASRVDIWTDVPGIYTTDPRVVSAAKRIDEIAFAEAAEMATFGAKVLHPATLLPAVRSDIPVFVGSSKDPRAGGTLVCNKTENPPLFRALALRRNQTLLTLHSLNMLHSRGFLAEVFGILARHNISVDLITTSEVSVALTLDTTGSTSTGDTLLTQSLLMELSALCRVEVEEGLALVALIGNDLSKACGVGKEVFGVLEPFNIRMICYGASSHNLCFLVPGEDAEQVVQKLHSNLFE
With B1 the Km [1] was 0.6 mM.

B2: E. coli aspartate semialdehyde dehydrogenase Asd variant E241Q T136N, SEQ ID NO: 231 (Escherichia coli K-12; E241Q/T136N) (protein)
chain: MKNVGFIGWRGMVGSVLMQRMVEERDFDAIRPVFFSTSQLGQAAPSFGGTTGTLQDAFDLEALKALDIIVTCQGGDYTNEIYPKLRESGWQGYWIDAASSLRMKDDAIIILDPVNQDVITDGLNNGIRTFVGGNCNVSLMLMSLGGLFANDLVDWVSVATYQAASGGGARHMRELLTQMGHLYGHVADELATPSSAILDIERKVTTLTRSGELPVDNFGVPLAGSLIPWIDKQLDNGQSRQEWKGQAETNKILNTSSVIPVDGLCVRVGALRCHSQAFTIKLKKDVSIPTVEELLAAHNPWAKVVPNDREITMRELTPAAVTGTLTTPVGRLRKLNMGPEFLSAFTVGDQLLWGAAEPLRRMLRQLA
B2 showed a Km [2] of 0.25 mM.

B3: E. coli aspartate semialdehyde dehydrogenase Asd variant E241Q, SEQ ID NO: 66 (Escherichia coli K-12; E241Q) (protein)
chain: MKNVGFIGWRGMVGSVLMQRMVEERDFDAIRPVFFSTSQLGQAAPSFGGTTGTLQDAFDLEALKALDIIVTCQGGDYTNEIYPKLRESGWQGYWIDAASSLRMKDDAIIILDPVNQDVITDGLNNGIRTFVGGNCTVSLMLMSLGGLFANDLVDWVSVATYQAASGGGARHMRELLTQMGHLYGHVADELATPSSAILDIERKVTTLTRSGELPVDNFGVPLAGSLIPWIDKQLDNGQSRQEWKGQAETNKILNTSSVIPVDGLCVRVGALRCHSQAFTIKLKKDVSIPTVEELLAAHNPWAKVVPNDREITMRELTPAAVTGTLTTPVGRLRKLNMGPEFLSAFTVGDQLLWGAAEPLRRMLRQLA
Protein B3 has a Km [3] of 0.52 mM and a Vmax [3] of 0.39 µmol/mg/min.

B4: E. coli aspartate semialdehyde dehydrogenase Asd variant E241M, SEQ ID NO: 64 (Escherichia coli K-12; E241M) (protein)
chain: MKNVGFIGWRGMVGSVLMQRMVEERDFDAIRPVFFSTSQLGQAAPSFGGTTGTLQDAFDLEALKALDIIVTCQGGDYTNEIYPKLRESGWQGYWIDAASSLRMKDDAIIILDPVNQDVITDGLNNGIRTFVGGNCTVSLMLMSLGGLFANDLVDWVSVATYQAASGGGARHMRELLTQMGHLYGHVADELATPSSAILDIERKVTTLTRSGELPVDNFGVPLAGSLIPWIDKQLDNGQSRMEWKGQAETNKILNTSSVIPVDGLCVRVGALRCHSQAFTIKLKKDVSIPTVEELLAAHNPWAKVVPNDREITMRELTPAAVTGTLTTPVGRLRKLNMGPEFLSAFTVGDQLLWGAAEPLRRMLRQLA
B4 showed a Km [4] of 0.43 mM and a Vmax [4] of 0.15 µmol/mg/min.

B5: E. coli aspartate semialdehyde dehydrogenase Asd variant E241A, SEQ ID NO: 54 (Escherichia coli K-12; E241A) (protein)
chain: MKNVGFIGWRGMVGSVLMQRMVEERDFDAIRPVFFSTSQLGQAAPSFGGTTGTLQDAFDLEALKALDIIVTCQGGDYTNEIYPKLRESGWQGYWIDAASSLRMKDDAIIILDPVNQDVITDGLNNGIRTFVGGNCTVSLMLMSLGGLFANDLVDWVSVATYQAASGGGARHMRELLTQMGHLYGHVADELATPSSAILDIERKVTTLTRSGELPVDNFGVPLAGSLIPWIDKQLDNGQSRAEWKGQAETNKILNTSSVIPVDGLCVRVGALRCHSQAFTIKLKKDVSIPTVEELLAAHNPWAKVVPNDREITMRELTPAAVTGTLTTPVGRLRKLNMGPEFLSAFTVGDQLLWGAAEPLRRMLRQLA
B5 was tested, and the Km [5] was 0.378 mM and the Vmax [5] was 0.09 µmol/mg/min.

B6: E. coli aspartate semialdehyde dehydrogenase Asd variant E241H, SEQ ID NO: 60 (Escherichia coli K-12; E241H) (protein)
chain: MKNVGFIGWRGMVGSVLMQRMVEERDFDAIRPVFFSTSQLGQAAPSFGGTTGTLQDAFDLEALKALDIIVTCQGGDYTNEIYPKLRESGWQGYWIDAASSLRMKDDAIIILDPVNQDVITDGLNNGIRTFVGGNCTVSLMLMSLGGLFANDLVDWVSVATYQAASGGGARHMRELLTQMGHLYGHVADELATPSSAILDIERKVTTLTRSGELPVDNFGVPLAGSLIPWIDKQLDNGQSRHEWKGQAETNKILNTSSVIPVDGLCVRVGALRCHSQAFTIKLKKDVSIPTVEELLAAHNPWAKVVPNDREITMRELTPAAVTGTLTTPVGRLRKLNMGPEFLSAFTVGDQLLWGAAEPLRRMLRQLA
Work on B6 yielded a Km [6] of 0.8 mM and a Vmax [6] of 0.10 µmol/mg/min.

B7: E. coli aspartate semialdehyde dehydrogenase Asd variant E241C, SEQ ID NO: 56 (Escherichia coli K-12; E241C) (protein)
chain: MKNVGFIGWRGMVGSVLMQRMVEERDFDAIRPVFFSTSQLGQAAPSFGGTTGTLQDAFDLEALKALDIIVTCQGGDYTNEIYPKLRESGWQGYWIDAASSLRMKDDAIIILDPVNQDVITDGLNNGIRTFVGGNCTVSLMLMSLGGLFANDLVDWVSVATYQAASGGGARHMRELLTQMGHLYGHVADELATPSSAILDIERKVTTLTRSGELPVDNFGVPLAGSLIPWIDKQLDNGQSRCEWKGQAETNKILNTSSVIPVDGLCVRVGALRCHSQAFTIKLKKDVSIPTVEELLAAHNPWAKVVPNDREITMRELTPAAVTGTLTTPVGRLRKLNMGPEFLSAFTVGDQLLWGAAEPLRRMLRQLA
B7 gave a Km [7] of 0.5 mM and a Vmax [7] of 0.18 µmol/mg/min.

B8: E. coli aspartate semialdehyde dehydrogenase Asd variant E241I, SEQ ID NO: 62 (Escherichia coli K-12; E241I) (protein)
chain: MKNVGFIGWRGMVGSVLMQRMVEERDFDAIRPVFFSTSQLGQAAPSFGGTTGTLQDAFDLEALKALDIIVTCQGGDYTNEIYPKLRESGWQGYWIDAASSLRMKDDAIIILDPVNQDVITDGLNNGIRTFVGGNCTVSLMLMSLGGLFANDLVDWVSVATYQAASGGGARHMRELLTQMGHLYGHVADELATPSSAILDIERKVTTLTRSGELPVDNFGVPLAGSLIPWIDKQLDNGQSRIEWKGQAETNKILNTSSVIPVDGLCVRVGALRCHSQAFTIKLKKDVSIPTVEELLAAHNPWAKVVPNDREITMRELTPAAVTGTLTTPVGRLRKLNMGPEFLSAFTVGDQLLWGAAEPLRRMLRQLA
B8 was tested, and the Km [8] was 0.23 mM and the Vmax [8] was 0.10 µmol/mg/min.
